Assay results: patent publication US20090060916A1 (published 2009)
Several values for one entry are separate records, joined by “and”; a condition that tells them apart may be missing. Identical values can stand only once.

Assays:
[1] = biological target: T1, human IL-13 (human, UniProt P35225 35-146, biotinylated on the Biacore chip); assay: cell-based or functional assay
[2] = biological target: T1, human IL-13; assay: IL-13 sandwich ELISA, competition with coating antibody
Experimental: (§1) A MAXISORP™ plate (high protein binding ELISA plate, Nunc, Denmark) was coated overnight with 2.5 μg/ml coating antibody (Module Set, Bender MedSystems, Vienna, Austria), then washed once with 0.05% (v/v) Tween 20 in PBS before blocking with 0.5% (w/v) BSA 0.05% (v/v) Tween 20 in PBS. […] The plate was then incubated with TMB substrate (KPL, Gaithersburg, USA), and the reaction was stopped by the addition of HCl and the absorbance read at 450 nm.

[3] = biological target: T1, human IL-13; assay: assay not named ('Potency IC50')
[4] = biological target: T1, human IL-13; assay: IL-13 receptor I RBA: FMAT beads, IL-13R alpha1/Fc
Experimental: (§2) The plate was incubated for seven hours before being read in the 8200 cellular detection system (Applied Biosystems).

[5] = biological target: T1, human IL-13; assay: cell-based or functional assay; remark: listed apart in the source
[6] = biological target: T1, human IL-13; assay: IL-13 receptor I RBA: FMAT beads, IL-13R alpha1/Fc; remark: listed apart in the source
Experimental: as §2
This molecule was PEGylated via the C terminus using PEG-Maleimide with a branched 40K PEG2-MAL moiety.

[7] = biological target: T1, human IL-13; assay: IL-13 receptor binding assay (receptor chain not stated)
[8] = biological target: T1, human IL-13; assay: IL-13 receptor binding assay by the legend; IL-13 sandwich ELISA by paragraph 465
[9] = biological target: T2, human IL-4 (human, UniProt P05112 25-153, biotinylated in the receptor binding assay and on the Biacore chip); assay: cell-based or functional assay
T2 sequence (looked up): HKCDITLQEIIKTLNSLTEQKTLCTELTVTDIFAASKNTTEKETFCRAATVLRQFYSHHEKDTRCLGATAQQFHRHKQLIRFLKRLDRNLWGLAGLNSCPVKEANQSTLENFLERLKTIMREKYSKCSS

[10] = biological target: T1, human IL-13; assay: cell-based or functional assay; remark: listed apart in the source
[11] = biological target: cynomolgous IL-13 (cynomolgous, UniProt Q0PW92 19-132, The Biacore assay used biotinylated cIL-13 according to our card. The biotin cannot be carried in the letters.); assay: cell-based or functional assay
[12] = biological target: T2, human IL-4; assay: IL-4 RBA: ELISA, IL-4R/Fc coated, biotinylated IL-4
Source text: The wells were washed three times with 0.1% (v/v) Tween 20 in PBS, followed by three washes with PBS, before blocking with 2% (w/v) BSA in PBS. […] The reaction was stopped by the addition of HCl and the absorbance read at 450 nm.

[13] = biological target: T1, human IL-13; assay: DOM10 RBA (IL-13 sandwich ELISA per paragraph 473)
Experimental: as §1
These in-line fusions were constructed and expressed as described above. […] After this incubation, the level of cell proliferation was determined.

[14] = biological target: T3, rhesus IL-4 (rhesus, UniProt P51492 25-153); assay: inferred from TF-1 proliferation with rhesus IL-4
T3 sequence (looked up): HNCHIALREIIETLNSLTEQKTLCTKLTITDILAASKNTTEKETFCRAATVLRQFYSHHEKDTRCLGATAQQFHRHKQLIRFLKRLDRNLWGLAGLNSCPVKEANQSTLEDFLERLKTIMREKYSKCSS
Experimental: The mixture was incubated for 72 hours at 37° C. 5% CO₂. […] 96® reagent (colorometric reagent for determining viability, Promega, Madison, USA) was then added and the number of cells per well was quantified by measuring the absorbance at 490 nm.
A dose-response of the dAb will determine the ND50 in this set up.

T1 sequence (P35225 35-146 limits assumed): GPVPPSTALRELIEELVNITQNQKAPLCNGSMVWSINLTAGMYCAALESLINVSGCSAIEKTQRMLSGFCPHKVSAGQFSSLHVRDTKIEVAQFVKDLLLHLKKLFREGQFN
Chain of cynomolgous IL-13 (Q0PW92 entry or part of it limits assumed, form in doubt): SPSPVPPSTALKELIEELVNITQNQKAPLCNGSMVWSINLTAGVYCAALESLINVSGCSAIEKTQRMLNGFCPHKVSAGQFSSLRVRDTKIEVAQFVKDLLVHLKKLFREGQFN

B1: DOM10-53-234 (other)
VH: GVQLLESGGGLVQPGGSLRLSCAASGFIFAWYDMGWARQAPGKGLEWVSSIDWHGNVTYYADSVKGRFTISRDNSKNTLYLQMNSLRAEDTAVYYCATAEDEPGYDYWGQGTLVTVSS
notes: VH dAb
- ND50, IL-13 induced TF-1 cell proliferation [1]: 43 nM
- IC50 [2]: 0.087 nM and 0.081 nM and 0.04 nM

B2: DOM10-53 (other)
VH: GVQLLESGGGLVQPGGSLRLSCAASGFTFAWYDMGWARQAPGKGLEWVSSIDDSGTQTYYADSVKGRFTISRDNSKNTLYLQMNSLRAEDTAVYYCATAERDDTFDYWGQGTLVTVSS
notes: VH dAb
- IC50 [3]: 100 nM
- IC50 [4]: 150 nM

B3: DOM10-53-338 (other)
VH: EVQLLESGGGLVQPGGSLRLSCAASGFIFAWYDMGWARQAPGKGLEWVSSIDWRGNVTYYADSVKGRFTISRDNSKNTLYLQMNSLRAEDTAVYYCATAEDEPGYDYWGQGTLVTVSS
notes: VH dAb
- IC50, IL-13 induced TF-1 proliferation [5]: 0.423 nM
- IC50 [6]: 0.387 nM

B4: DOM10-53-338 30K PEG ALD (other)
VH: EVQLLESGGGLVQPGGSLRLSCAASGFIFAWYDMGWARQAPGKGLEWVSSIDWRGNVTYYADSVKGRFTISRDNSKNTLYLQMNSLRAEDTAVYYCATAEDEPGYDYWGQGTLVTVSS
modifications: 30K PEG-ALD on the N-terminus (alpha-amino group)
notes: also called 30K PEGylated DOM10-53-338 dAb
- IC50, IL-13 induced TF-1 proliferation [5]: 0.181 nM
- IC50 [6]: 0.169 nM

B5: DOM10-53-338 40K PEG2 NHS (other)
VH: EVQLLESGGGLVQPGGSLRLSCAASGFIFAWYDMGWARQAPGKGLEWVSSIDWRGNVTYYADSVKGRFTISRDNSKNTLYLQMNSLRAEDTAVYYCATAEDEPGYDYWGQGTLVTVSS
modifications: 40K PEG2-NHS on surface lysine residues (positions not stated)
notes: also called 40K PEGylated DOM10-53-338 dAb
- IC50, IL-13 induced TF-1 proliferation [5]: 0.231 nM
- IC50 [6]: 0.226 nM

B6: DOM10-53-343 (other)
VH: EVQLLESGGGLVQPGGSLRLSCAASGFIFAWYDMGWARQAPGKGLEWVSSIDWHGEVTYYADSVKGRFTISRDNSKNTLYLQMNSLRAEDTAVYYCATAEDEPGYDYWGQGTLVTVSS
notes: VH dAb
- IC50 [6]: 0.136 nM
- IC50 [7]: 0.23 nM

B7: DOM10-53-344 (other)
VH: GVQLLESGGGLVQPGGSLRLSCAASGFIFAWYDMGWVRQAPGKGLEWVSSIDWHGEVTYYADSVKGRFTISRDNSKNTLYLQMNSLRAEDTAVYYCATAEDEPGYDYWGQGTLVTVSS
notes: VH dAb
- ND50, IL-13 induced TF-1 cell proliferation [1]: 100 nM
- IC50 [3]: 0.1 nM
- IC50 [8]: 0.04 nM

B8: DOM10-176 (other)
VL: DIQMTQSPSSLSASVGDRVTITCRASQWIGPYLNWYQQKPGKAPKLLIYMGSYLQSGVPSRFSGSGSGTDFTLTISSLQPEDFATYYCQQDLYPPYTFGQGTKVEIKR
notes: Vk dAb
- IC50 [4]: 100 nM

B9: DOM9-155-11 (other)
VL: DIQMTQSPSSLSASVGDRVTITCRASRNIGDWLHWYQQKPGKAPKLLIAWASTLDSGVPSRFSGSGSGTDFTLTISSLQPEDFATYYCLQEGWGPPTFGQGTKVEIKR
- average inhibition of HDM induced PBMC proliferation, 100 nM dAb, responding donors [9]: 34%

B10: DOM9-112-22 (other)
VH: EVQLLESWGGLVQPGGSLRLSCAASGFTFRNYGMAWVRQAPGKGLEWISWIDASGTETYYADPVKGRFTISRDNSKNTLYLQMNSLRAEDTAVYYCAKSLGRFDYWGQGTLVTVSS
- average inhibition of HDM induced PBMC proliferation, 100 nM dAb, responding donors [9]: 23%

B11: DOM10-273 (other)
VH: EVQLLESGGGLVQPGGSLRLSCAASGFTFELEEMDWVRQAPGKGLEWVSSISGSGGSTYYADSVKGRFTISRDNSKNTLYLQMNSLRAEDTAVYYCAKAYTGFDYWGQGTLVTVSS
notes: VH dAb
- IC50 [4]: 600 nM

B12: DOM10-275 (other)
VH: EVQLLESGGGLVQPGGSLRLSCAASGFTFDREEMDWVRQAPGKGLEWVSTISPSGRKTYYADSVKGRFTISRDNSKNTLYLQMNSLRAEDTAVYYCAKHGTGFDYWGQGTLVTVSS
notes: VH dAb
- IC50 [4]: 1000 nM

B13: DOM10-276 (other)
VH: EVQLLESGGGLVQPGGSLRLSCAASGFTFRDYEMDWVRQAPGKGLEWVSSIGPSGSETYYADSVKGRFTISRDNSKNTLYLQMNSLRAEDTAVYYCAKAYTSFDYWGQGTLVTVSS
notes: VH dAb
- IC50 [4]: 3000 nM

B14: DOM10-416 (other)
VH: EVQLLESGGGLVQPGGSLRLSCAASGFTFKGSEMDWVRQAPGKGLEWVSTISADGRETYYADSVKGRFTISRDNSKNTLYLQMNSLRAEDTAVYYCAKSYTSFDYWGQGTLVTVSS
notes: VH dAb
- IC50 [4]: 6000 nM

B15: DOM10-275-100 (other)
VH: GVQLLESGGGLVQPGGSLRLSCAASGFTFDSAEMDWVRQAPGKGLEWVSTISPSRRGTYYADSVKGRFTISRDNSKNTLYLQMNSLRAEDTAVYYCAKAYTGRSYWGPGTLVTVSS
- EC50, HEK293 STAT6 SEAP reporter assay, hIL-13 [10]: 2.8 nM
- EC50, HEK293 STAT6 SEAP reporter assay, cIL-13 [11]: 2.5 nM

B16: DOM10-275-101 (other)
VH: GVQLLESGGGLVQPGGSLRLSCVASGFTFDVAEMDWVRQAPGKGLEWVSTISPSRRGTYYADSVKGRFTISRDNSKNTLYLQMNSLRAEDTAVYYCAKAYTGRSLWGPGTLVTVSS
- EC50, HEK293 STAT6 SEAP reporter assay, hIL-13 [10]: 3.6 nM and 2 nM
- EC50, HEK293 STAT6 SEAP reporter assay, cIL-13 [11]: 1.8 nM

B17: PEGylated DOM9-112 (AST) DOM10-53-343 (bispecific antibody)
chain: EVQLLESGGGLVQPGGSLRLSCAASGFTFRNYGMAWVRQAPGKGLEWVSWIDASGTETYYADSVKGRFTISRDNSKNTLYLQMNSLRAEDTAVYYCAKSLGRFDYWGQGTLVTVSSASTEVQLLESGGGLVQPGGSLRLSCAASGFIFAWYDMGWARQAPGKGLEWVSSIDWHGEVTYYADSVKGRFTISRDNSKNTLYLQMNSLRAEDTAVYYCATAEDEPGYDYWGQGTLVTVSSC
modifications: 40K PEG2-MAL on the C-terminal cysteine
notes: in-line fusion of two VH dAbs made in Pichia pastoris; also called dual specific ligand
- IC50 [12]: 13 nM
- IC50 [7]: 0.31 nM

B18: DOM9-112-210-DOM10-275-1 (bispecific antibody)
chain: EVQLLESGGGLVQPGGSLRLSCAASGFTFRNFGMGWVRQAPGKGLEWVSWIISSGTETYYADSVKGRFTISRDNSKNTLYLQMNSLRAEDTAVYYCAKSLGRFDYWGQGTLVTVSSASTKGPSEVQLLESGGGLVQPGGSLRLSCAASGFTFDREEMDWVRQAPGKGLEWVSTISPSGRKTYYADSVKGRFTISRDNSKNTLYLQMNSLRAEDTAVYYCAKAYTGFDYWGQGTLVTVSS
- IC50 [13]: 44.9 nM

B19: DOM10-275-1-DOM9-155-78 (bispecific antibody)
chain: EVQLLESGGGLVQPGGSLRLSCAASGFTFDREEMDWVRQAPGKGLEWVSTISPSGRKTYYADSVKGRFTISRDNSKNTLYLQMNSLRAEDTAVYYCAKAYTGFDYWGQGTLVTVSSASTKGPSDIQMTQSPSSLSASVGDRVTITCRASRHIGDWLHWYQQKPGKAPKLLIAWASTLDSGVPSRFSGSGSGTDFTLTISSLQPEDFATYYCLQEGWGPPTFGQGTKVEIKR
- IC50 [13]: 39.2 nM

B20: DOM9-155-5 (other)
VL: DIQMTQSPSSLSASVGDRVTITCRASLDIGDWLHWYQQKPGKAPKLLIAWASTLDSGVPSRFSGSGSGTDFTLTISSLQPEDFATYYCLQEGWGPPTFGQGTKVEIKR
notes: Vk dAb
- binding result [14]: binds

B21: DOM10-53-343 40K PEG2 MAL (other)
VH: EVQLLESGGGLVQPGGSLRLSCAASGFIFAWYDMGWARQAPGKGLEWVSSIDWHGEVTYYADSVKGRFTISRDNSKNTLYLQMNSLRAEDTAVYYCATAEDEPGYDYWGQGTLVTVSSC
modifications: branched 40K PEG2-MAL on the C-terminal cysteine
- IC50 [6]: 0.033 nM
